Source: patent US20230049752A1 (University of California, published 2023)

T1: mouse Claudin-6 (CLDN6) (mouse, UniProt Q9Z262 1-219)
T1 construct: whole, on cells; GFP fusion on engineered HEK293T cells; also called Mouse CLDN6; murine CLDN6
T1 sequence (looked up): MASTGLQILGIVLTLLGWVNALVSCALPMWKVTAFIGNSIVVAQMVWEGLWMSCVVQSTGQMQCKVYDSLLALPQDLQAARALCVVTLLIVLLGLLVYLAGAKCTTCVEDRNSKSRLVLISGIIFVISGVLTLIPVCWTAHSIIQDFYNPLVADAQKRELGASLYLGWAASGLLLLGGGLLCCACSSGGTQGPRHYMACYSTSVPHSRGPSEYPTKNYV


Columns and labels:
[1] = biological target: human Claudin-6 (CLDN6) (human) (UniProt P56747); assay: FACS, 1.5 ug Ab, 293T clone expressing human CLDN6 (2nd Ab only 768.07)
[2] = biological target: human Claudin-6 (CLDN6) (human) (UniProt P56747); assay: FACS, 0.3 ug Ab, 293T clone expressing human CLDN6 (2nd Ab only 768.07)
[3] = biological target: human Claudin-6 (CLDN6) (human) (UniProt P56747); assay: FACS, 1.5 ug Ab, OVCA429 cells (2nd Ab only 885.77)
mouse Claudin-6 (CLDN6) = biological target: T1, mouse Claudin-6 (CLDN6); assay: FACS, 293T clone expressing mouse CLDN6, dose not stated (2nd Ab only 1061.72)
Experimental: Two doses (1.5 μg or 0.3 μg) of the humanized antibodies were tested for binding to either human CLDN6 or murine CLDN6 which proteins were expressed by engineered 293T clones.

[4] = biological target: human Claudin-6 (CLDN6) (human) (UniProt P56747); assay: FACS, 0.3 ug Ab, ARK2 cells (2nd Ab only 1351.21)
[5] = biological target: human Claudin-6 (CLDN6) (human) (UniProt P56747); assay: FACS, 1.5 ug Ab, ARK2 cells (2nd Ab only 1351.21)
[6] = biological target: CLDN3/4 (endogenous on LS513 or MCF7 cells); assay: FACS titration of labelled mAb on LS513 cells (endogenous CLDN3/4+)
[7] = biological target: CLDN3/4 (endogenous on LS513 or MCF7 cells); assay: FACS titration of labelled mAb on MCF7 cells (endogenous CLDN3/4+)
[8] = biological target: human Claudin-6 (CLDN6) (human) (UniProt P56747); assay: FACS titration of labelled mAb on HEK293T-CLDN6-mGFP cells
[9] = biological target: human Claudin-6 (CLDN6) (human) (UniProt P56747); assay: FACS titration of labelled mAb on OVCA429 cells (endogenous CLDN6+)
[10] = biological target: human Claudin-6 (CLDN6) (human) (UniProt P56747); assay: FACS titration of labelled mAb on ARK2 cells (endogenous CLDN6+)

| FACS fluorescence [1] | FACS fluorescence [2] | FACS fluorescence [3] | FACS fluorescence (mouse Claudin-6 (CLDN6)) | FACS fluorescence [4] | FACS fluorescence [5] | EC50 [6] [nM] | EC50 [7] [nM] | EC50 [8] [nM] | EC50 [9] [nM] | EC50 [10] [nM] | Binder |
| --- | --- | --- | --- | --- | --- | --- | --- | --- | --- | --- | --- |
| 459000 | 267000 | 138000 | 67900 | 17100 | 29100 | – | – | – | – | – | AB3-chim (antibody, V domains shown) VH: EVKLEESGGGLVQPGGSMKLSCVASGFTFSNYWMNWVRQSPEKGLEWVAQIRLKSDNYATHYAESVKGRFTISRDDSKRSVYLQMNNLRAEDTGTYYCNDGPPSGCWGQGTTLIVSS VL: DIQMTQSPASLSASVGETVTITCRISENIYSYLAWYQQKQGKSPQLLVYNAKILVEGVPSRFSGSGSGTQFSLKINSLQPEDFGNYYCQHHYTVPWTFGGGTKLEIK |
| – | – | – | – | – | – | 5000 | 5000 | 2650 | 5000 | 5000 | AB17 (antibody, V domains shown) VH: QVQLQQSGAELAKPGASVKMSCKASGYTFTGYWMHWVKQRPGQGLEWLGYINPSTGYTESNQKFKDKATLTADKSSTTAYMQLRSLTPEDSAVYYCAREGITTVLVDYWGQGTTLTVSS VL: QIVLTQSPAIMSASLGERVTMTCTASSSVSSSYLHWYQQKPGSSPKLWIYSTSNLASGVPARFSGSGSGTSYSLTISSMEAEDAATYYCHQYHRSPPTFGAGTKLELK |
| 327000 | 176000 | 64800 | 3640 | 19100 | 38400 | – | – | – | – | – | AB4-chim (antibody, V domains shown) VH: QVQLQQSGAELARPGASVKMSCKASGYTFTSYTMHWIKQRPGQGQEWIGYINPSSTYTHYIKKFKDKATLTADKSSSTAYMQLRSLTSEDSAVYYCSRGELGGFAYWGQGTLVTVSA VL: DVVMTQTPLSLPVSLGDQASISCRSSQSLVHSDGNTYLNWYLQKPGQSPKLLIYKVSNRFSGVPDRFSGSGSGTDFTLKIRRVEAEDLGVYFCSQSTHVPYTFGGGTKLEIK |
| 43400 | 16800 | 1350 | 2000 | 967 | 1200 | – | – | – | – | – | AB4-5 (antibody, V domains shown, humanized) VH: QVQLVQSGAEVKKPGASVKMSCKASGYTFTSYTMHWIRQAPGQGQEWIGYINPSSTYTHYAQKFQGRATLTADTSTSTAYMELSSLRSEDTAVYYCSRGELGGFAYWGQGTLVTVSS VL: DVVMTQSPLSLPVTLGQPASISCRSSQSLVHSDGNTYLNWYQQRPGQSPRLLIYKVSNRFSGVPDRFSGSGSGTDFTLKISRVEAEDVGVYYCSQSTHVPYTFGQGTKLEIK |
| 47800 | 14300 | 1160 | 671 | 1190 | 1520 | – | – | – | – | – | AB4-3 (antibody, V domains shown, humanized) VH: QVQLVQSGAEVKKPGASVKVSCKASGYTFTSYTMHWVRQAPGQGLEWMGYINPSSTYTHYAQKFQGRVTMTADTSTSTVYMELSSLRSEDTAVYYCSRGELGGFAYWGQGTLVTVSS VL: DVVMTQSPLSLPVTLGQPASISCRSSQSLVHSDGNTYLNWYQQRPGQSPRLLIYKVSNRFSGVPDRFSGSGSGTDFTLKISRVEAEDVGVYYCSQSTHVPYTFGQGTKLEIK |
| – | – | – | – | – | – | 1040 | 5000 | 2670 | 1160 | 1140 | AB9 (antibody, V domains shown) VH: EVQLQQSGPELVKPGASVKMSCKASGYRFTDYNMHWVKQSHGKSLEWIGYINPNNGGTNYNQNFKGKATLTVNKSSSTAYMELRSLTSEDSAAYYCARDYLYFFDCWGQGTTLTVSS VL: DIQMTQSPASQSASLGESVTITCLASQTIGTWLAWYQQKPGKSPQLLIYAAASLADGVPSRFSGSGSGTRFSFKISSLQAEDFVSYYCQQLYSIPRTFGGGTKLEIK |
| 34300 | 15300 | 1110 | 1710 | 1120 | 1550 | – | – | – | – | – | AB9-4 (antibody, V domains shown, humanized) VH: QVQLVQSGAEVKKPGASVKMSCKASGYRFTDYNMHWVRQAPGQGLEWIGYINPNNGGTNYAQKFQGRATLTVDTSTSTAYMELSSLRSEDTAVYYCARDYLYFFDCWGQGTLLTVSS VL: DIQMTQSPSSLSASVGDRVTITCRASQTIGTWLAWYQQKPGKAPKLLIYAAASLADGVPSRFSGSGSGTDFTFTISSLQPEDFVTYYCQQLYSIPRTFGQGTKLEIK |

More lines, now with the values behind:

| Binder | FACS fluorescence [1] | FACS fluorescence [2] | FACS fluorescence [3] | FACS fluorescence (mouse Claudin-6 (CLDN6)) | FACS fluorescence [4] | FACS fluorescence [5] | EC50 [6] [nM] | EC50 [7] [nM] | EC50 [8] [nM] | EC50 [9] [nM] | EC50 [10] [nM] |
| --- | --- | --- | --- | --- | --- | --- | --- | --- | --- | --- | --- |
| AB14 (antibody, V domains shown) VH: QVQLQQSGPELVRPGVSVKISCKGSGYTFTDYAMHWVKQSHAKSLEWIGVISTYSGNTNYNQKFQDKATMTVDKSSSTAYMALARLTSDDSAIYYCARRGDYSLYAMDYWGQGTSVTVSS VL: DIVLTQSPASLAVSLGQRATISCKASQSVDYDGDNYVNWYQQKVGQPPKLLISAASNLESGIPARFSGSGSGTDFTLNIHPVEEEDAATYYCQQSNEDPFTFGSGTKLEIK | – | – | – | – | – | – | 1160 | 546 | 5000 | 1660 | 1300 |
| AB18 (antibody, V domains shown) VH: QVQLKQSGPELEKPGASVKISCKASGYSFTGYNMNWVKQSNGKSLEWIGNIDPYYGGSTYNQKFTGKATLTVDKSSSTAYMQLKSLTSEDSAVYYCARERSGYVFSAMDYWGQGTSVTVSS VL: NIMMTQSPSSLAVSAGEKVTMSCKSSQSVLFSSNQKNYLAWYQQKPGQSPRLLIYWASTRESGVPDRFTGSGSGTDFTLTISNVQAEDLAVYYCHQYLSSRTFGAGTKLELK | – | – | – | – | – | – | 5000 | 5000 | 5000 | 2440 | 1350 |
| AB11-chim (antibody, V domains shown) VH: DVQLVESGGGLVQPRGSRKLSCAASGFTFSSFGMHWVRQAPEKGLEWVAYISSDSRTIYYADTVKGRFTISRDNPTNTLFLQMTSLRSEDTAMYYCARDYGRTYEAYWGQGTLVTVSA VL: DIVLTQSPASLAVSLGQRATISCRASKSVSTSGYSYIHWYQQKPGQPPKLLIYLASNLESGVPARFSGSGSGTDFTLNIHPVEEEDAATYYCQHSRELPLTFGAGTKLELK | 3490 | 1670 | 2440 | 5490 | 1320 | 1260 | – | – | – | – | – |
| AB13 (antibody, V domains shown) VH: QVQLQQSGAELVRPGTSVKVSCKASGYAFSNYLIEWVKQRPGQGLEWIGVINPGSGGTNYNEKFKGKATMTADKSSSTAYMHLSNLTSEDSVVYFCARSYFGRSYPYTMDYWGQGTSVTVSS VL: EIVLTQSPTTMAASPGEKITITCSASSSISSNYLHWYQQKPGFSPKLLIYRTSNLASGVPARFSGSGSGTSYSLTIGTMEAEDVATYYCQQGSSIPLTFGAGTKLELK | – | – | – | – | – | – | 1590 | 5000 | 5000 | 2290 | 1150 |
| AB4-4 (antibody, V domains shown, humanized) VH: QVQLVQSGAEVKKPGASVKMSCKASGYTFTSYTMHWIRQAPGQGLEWIGYINPSSTYTHYAQKFQGRATLTADTSTSTAYMELSSLRSEDTAVYYCSRGELGGFAYWGQGTLVTVSS VL: DVVMTQSPLSLPVTLGQPASISCRSSQSLVHSDGNTYLNWYQQRPGQSPRLLIYKVSNRFSGVPDRFSGSGSGTDFTLKISRVEAEDVGVYYCSQSTHVPYTFGQGTKLEIK | 49000 | 14100 | 1200 | 741 | 1050 | 1400 | – | – | – | – | – |
| AB11-2 (antibody, V domains shown, humanized) VH: EVQLVESGGGLVQPGGSLRLSCAASGFTFSSFGMHWVRQAPGKGLEWVAYISSDSRTIYYADSVKGRFTISRDNAKNSLYLQMNSLRAEDTAVYYCARDYGRTYEAYWGQGTLVTVSS VL: DIVMTQSPDSLAVSLGERATINCRASKSVSTSGYSYIHWYQQKPGQPPKLLIYLASNLESGVPDRFSGSGSGTDFTLTISSLQAEDVAVYYCQHSRELPLTFGQGTKLEIK | 2560 | 1290 | 2690 | 7160 | 1400 | 1940 | – | – | – | – | – |
| AB11-3 (antibody, V domains shown, humanized) VH: EVQLVESGGGLVQPGGSLRLSCAASGFTFSSFGMHWVRQAPGKGLEWVAYISSDSRTIYYADSVKGRFTISRDNAKNSLYLQMNSLRAEDTAVYYCARDYGRTYEAYWGQGTLVTVSS VL: DIVLTQSPDSLAVSLGERATINCRASKSVSTSGYSYIHWYQQKPGQPPKLLIYLASNLESGVPDRFSGSGSGTDFTLTISSVQAEDVAVYYCQHSRELPLTFGQGTKLELK | 2360 | 1010 | 2200 | 5520 | 1320 | 1540 | – | – | – | – | – |
